Laboratory results taken from patent EP4671273A1.

Assays:
[1] = biological target: hPD-1 expressed on Jurkat cells (human) (UniProt Q15116); assay: flow cytometry on Jurkat PD-1 cells, competitor nivolumab at 100x molar excess
[2] = biological target: hPD-1 expressed on Jurkat cells (human) (UniProt Q15116); assay: flow cytometry on Jurkat PD-1 cells, competitor pembrolizumab at 100x molar excess

hPD-1 expressed on Jurkat cells (human), sequence (Q15116 25-288): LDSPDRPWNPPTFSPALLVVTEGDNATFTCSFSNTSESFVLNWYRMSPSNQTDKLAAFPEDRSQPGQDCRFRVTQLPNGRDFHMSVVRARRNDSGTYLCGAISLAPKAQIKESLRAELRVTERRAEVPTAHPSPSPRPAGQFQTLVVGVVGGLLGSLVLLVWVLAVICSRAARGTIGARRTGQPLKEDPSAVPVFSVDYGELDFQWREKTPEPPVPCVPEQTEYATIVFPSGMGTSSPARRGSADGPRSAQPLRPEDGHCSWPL

- signal inhibition in % [1]: 8.66%
- signal inhibition in % [2]: 8.66%
B1: XVT458-z2-m6 (antibody, human IgG1, V domains shown)
VH: VQLVQSGAEVKKPGASVKVSCKASGYTFTNFYIHWVRQAPGQGLEWMGSIYPNYGITAYNQKFKDRVTMTVDTSTSTAYMELRSLRSDDTAVYYCARGYSYAMDYWGQGTTVTVSS
VL: DIQMTQSPSSVSASVGDRVTITCSASQGISGDLNWYQQKPGKAPKLLIYHTSQLHSDVPSRFSGSGSGTDFTLTISSLQPEDFATYYCQGYSKDLLTFGGGTKLEIK
